Source: article PMC9482650, “Quantitative fragmentomics allow affinity mapping of interactomes” (Nature Communications, 2022)

Assays:
Assay in all cases: holdup assay
Design in all cases: key: below the threshold = too weak to quantify, mostly under pKd 3.1 to 4
[1] = biological target: T1, APBA1_1, Q02410
T1 sequence (Q02410 651-752, limits assumed, looked up): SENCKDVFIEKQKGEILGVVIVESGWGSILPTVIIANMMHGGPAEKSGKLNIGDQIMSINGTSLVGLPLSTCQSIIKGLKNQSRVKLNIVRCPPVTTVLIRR

[2] = biological target: T2, APBA2_1, Q99767
T2 sequence (Q99767 563-664, limits assumed, looked up): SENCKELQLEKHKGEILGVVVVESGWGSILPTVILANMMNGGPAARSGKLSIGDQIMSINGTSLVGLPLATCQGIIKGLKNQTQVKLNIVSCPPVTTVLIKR

[3] = biological target: T3, APBA2_2, Q99767
T3 sequence (Q99767 654-744, limits assumed, looked up): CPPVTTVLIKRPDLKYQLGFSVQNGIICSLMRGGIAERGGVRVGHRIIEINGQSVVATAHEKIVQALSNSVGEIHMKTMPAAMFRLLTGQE

[4] = biological target: T4, APBA3_1, O96018
T4 sequence (O96018 389-490, limits assumed, looked up): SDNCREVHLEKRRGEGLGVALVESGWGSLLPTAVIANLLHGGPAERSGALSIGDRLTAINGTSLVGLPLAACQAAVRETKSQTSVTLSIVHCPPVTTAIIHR

[5] = biological target: T5, DFNB31_3, Q9P202
T5 sequence (Q9P202 811-907, limits assumed, looked up): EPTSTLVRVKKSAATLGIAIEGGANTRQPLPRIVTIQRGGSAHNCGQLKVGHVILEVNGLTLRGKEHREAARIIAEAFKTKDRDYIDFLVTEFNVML

[6] = biological target: T6, DVL3, Q92997
T6 sequence (Q92997 244-331, limits assumed, looked up): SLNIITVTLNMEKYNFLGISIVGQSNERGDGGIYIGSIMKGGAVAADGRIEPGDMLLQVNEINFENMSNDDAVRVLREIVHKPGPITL

[7] = biological target: FRMPD4, Q14CM0
[8] = biological target: GRASP, Q7Z6J2
[9] = biological target: GRIP2_3, Q9C0E4
[10] = biological target: GRIP2_7, Q9C0E4
[11] = biological target: T7, HTRA4, P83105
T7 sequence (P83105 378-476, limits assumed, looked up): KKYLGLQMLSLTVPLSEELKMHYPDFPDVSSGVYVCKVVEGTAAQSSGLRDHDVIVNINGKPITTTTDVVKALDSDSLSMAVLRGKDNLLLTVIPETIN

[12] = biological target: Inadl_2, Q8NI35
[13] = biological target: T8, LIN7B, Q9HAP6
T8 sequence (Q9HAP6 88-185, limits assumed, looked up): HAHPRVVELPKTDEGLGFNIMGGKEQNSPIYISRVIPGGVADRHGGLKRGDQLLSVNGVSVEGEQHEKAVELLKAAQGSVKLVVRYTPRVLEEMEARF

[14] = biological target: MAGI2_4, Q86UL8
[15] = biological target: MAST2, Q6P0Q8
[16] = biological target: T9, MPDZ_10, O75970
T9 sequence (O75970 1624-1722, limits assumed, looked up): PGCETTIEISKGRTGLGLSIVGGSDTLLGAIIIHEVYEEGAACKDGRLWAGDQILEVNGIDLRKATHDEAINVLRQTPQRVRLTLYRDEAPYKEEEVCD

[17] = biological target: T10, NHERF3_4, Q5T2W1
T10 sequence (Q5T2W1 373-468, limits assumed, looked up): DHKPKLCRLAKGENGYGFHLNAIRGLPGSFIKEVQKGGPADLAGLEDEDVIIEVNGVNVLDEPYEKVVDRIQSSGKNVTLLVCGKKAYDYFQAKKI

[18] = biological target: PDLIM1, O00151
[19] = biological target: T11, PDZD7_3, Q9H5P4
T11 sequence (Q9H5P4 857-944, limits assumed, looked up): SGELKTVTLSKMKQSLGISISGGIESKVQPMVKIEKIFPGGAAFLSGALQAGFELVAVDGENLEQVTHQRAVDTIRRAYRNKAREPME

[20] = biological target: T12, SIPA1L2, Q9P2F8
T12 sequence (Q9P2F8 945-1036, limits assumed, looked up): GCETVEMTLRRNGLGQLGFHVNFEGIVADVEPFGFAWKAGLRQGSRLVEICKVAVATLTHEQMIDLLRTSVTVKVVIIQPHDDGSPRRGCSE

[21] = biological target: SNX27, Q96L92
[22] = biological target: T13, SYNJ2BP, P57105
T13 sequence (P57105 8-110, limits assumed, looked up): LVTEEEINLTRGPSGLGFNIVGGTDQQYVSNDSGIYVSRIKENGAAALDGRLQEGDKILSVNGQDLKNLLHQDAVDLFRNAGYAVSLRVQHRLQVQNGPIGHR

[23] = biological target: MAGI3_2, Q5TCQ9
[24] = biological target: TJP2_1, Q9UDY2
[25] = plain residues with an end cap or a label only (N-terminal biotin on a linker: ado-ado)
[26] = plain residues with an end cap or a label only (N-terminal biotin on a linker: (peg)3)

Sequence of GRASP, Q7Z6J2 (Q7Z6J2 96-193): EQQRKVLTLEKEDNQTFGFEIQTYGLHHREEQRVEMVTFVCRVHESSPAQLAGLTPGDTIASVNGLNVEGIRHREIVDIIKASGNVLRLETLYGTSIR
Sequence of FRMPD4, Q14CM0 (Q14CM0 67-160): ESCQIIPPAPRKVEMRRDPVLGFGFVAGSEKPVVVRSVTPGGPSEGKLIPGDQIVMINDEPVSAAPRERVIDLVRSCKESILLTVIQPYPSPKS
Sequence of MAGI2_4, Q86UL8 (Q86UL8 772-865): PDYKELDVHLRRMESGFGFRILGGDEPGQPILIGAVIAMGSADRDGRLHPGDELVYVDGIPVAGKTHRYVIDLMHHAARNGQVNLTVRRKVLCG
Sequence of GRIP2_3, Q9C0E4 (Q9C0E4 238-339): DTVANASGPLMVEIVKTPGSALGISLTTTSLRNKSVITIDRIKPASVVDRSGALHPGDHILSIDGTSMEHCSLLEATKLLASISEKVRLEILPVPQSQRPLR
Sequence of Inadl_2, Q8NI35 (Q8NI35 238-335): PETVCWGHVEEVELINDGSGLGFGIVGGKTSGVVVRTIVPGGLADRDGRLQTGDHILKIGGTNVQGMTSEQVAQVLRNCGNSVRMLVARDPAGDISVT
Sequence of GRIP2_7, Q9C0E4 (Q9C0E4 934-1023): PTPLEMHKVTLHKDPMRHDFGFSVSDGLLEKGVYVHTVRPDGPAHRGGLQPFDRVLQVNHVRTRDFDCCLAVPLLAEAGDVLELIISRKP
Sequence of MAST2, Q6P0Q8 (Q6P0Q8 1099-1202): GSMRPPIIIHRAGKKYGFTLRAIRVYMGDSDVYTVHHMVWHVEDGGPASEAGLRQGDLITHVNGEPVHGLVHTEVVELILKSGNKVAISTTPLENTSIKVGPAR
Sequence of MAGI3_2, Q5TCQ9 (Q5TCQ9 398-503): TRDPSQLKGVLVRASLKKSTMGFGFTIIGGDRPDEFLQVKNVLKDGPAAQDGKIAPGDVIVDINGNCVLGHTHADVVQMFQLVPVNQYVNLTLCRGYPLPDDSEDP
Sequence of PDLIM1, O00151 (O00151 1-87): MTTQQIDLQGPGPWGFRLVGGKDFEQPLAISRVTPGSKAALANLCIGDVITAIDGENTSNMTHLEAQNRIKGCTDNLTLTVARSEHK
Sequence of TJP2_1, Q9UDY2 (Q9UDY2 24-128): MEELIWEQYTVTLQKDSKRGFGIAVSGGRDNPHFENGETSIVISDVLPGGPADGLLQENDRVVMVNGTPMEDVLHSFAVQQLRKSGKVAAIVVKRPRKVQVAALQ

Binder: LPAHHNATRL [SLC34A1, Q06495;Q06495-1]
- pKd [1, 25]: below the threshold
- pKd [2, 25]: below the threshold
- pKd [3, 25]: below the threshold
- pKd [4, 25]: below the threshold
- pKd [5, 25]: below the threshold
- pKd [6, 25]: below the threshold
- pKd [7, 25]: 4.31
- pKd [8, 25]: 4.26
- pKd [9, 25]: below the threshold
- pKd [10, 25]: below the threshold
- pKd [11, 25]: 3.96
- pKd [12, 25]: below the threshold
- pKd [13, 25]: below the threshold
- pKd [14, 25]: below the threshold
- pKd [15, 25]: 5.47
- pKd [16, 25]: below the threshold
- pKd [17, 25]: 4.09
- pKd [18, 25]: below the threshold
- pKd [19, 25]: 4.43
- pKd [20, 25]: below the threshold
- pKd [21, 25]: 4.19
- pKd [22, 25]: below the threshold

Binder: NLNSSEGVPDLLV [SARS-CoV-E, P59637]
- pKd [1, 26]: below the threshold
- pKd [2, 26]: below the threshold
- pKd [3, 26]: below the threshold
- pKd [4, 26]: below the threshold
- pKd [5, 26]: below the threshold
- pKd [6, 26]: below the threshold
- pKd [7, 26]: below the threshold
- pKd [8, 26]: below the threshold
- pKd [9, 26]: below the threshold
- pKd [10, 26]: below the threshold
- pKd [11, 26]: below the threshold
- pKd [12, 26]: below the threshold
- pKd [13, 26]: below the threshold
- pKd [14, 26]: below the threshold
- pKd [23, 26]: below the threshold
- pKd [15, 26]: below the threshold
- pKd [16, 26]: below the threshold
- pKd [17, 26]: below the threshold
- pKd [18, 26]: below the threshold
- pKd [19, 26]: below the threshold
- pKd [20, 26]: below the threshold
- pKd [21, 26]: below the threshold
- pKd [22, 26]: 3.99
- pKd [24, 26]: below the threshold

Binder: YLEPVLSSEL [ATP2A2, P16615;P16615-3]
- pKd [1, 25]: below the threshold
- pKd [2, 25]: below the threshold
- pKd [3, 25]: below the threshold
- pKd [4, 25]: below the threshold
- pKd [5, 25]: 4.03
- pKd [6, 25]: below the threshold
- pKd [7, 25]: below the threshold
- pKd [8, 25]: 4.82
- pKd [9, 25]: below the threshold
- pKd [10, 25]: below the threshold
- pKd [11, 25]: below the threshold
- pKd [12, 25]: below the threshold
- pKd [14, 25]: below the threshold
- pKd [23, 25]: below the threshold
- pKd [15, 25]: 5.81
- pKd [16, 25]: below the threshold
- pKd [17, 25]: 4.8
- pKd [19, 25]: 4.91
- pKd [20, 25]: below the threshold
- pKd [21, 25]: 4.12
- pKd [22, 25]: 4.24
- pKd [24, 25]: below the threshold
